Reference: the nanobody polyreactivity screen of Harvey et al. (2022)

Assay: yeast display, Sf9 membrane polyspecificity reagent, FACS + sequencing; frameworks hold sequencing errors
Method in brief: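 Using colony PCR, genes from sorted yeast display clones were amplified, then sequenced on MiSeq at 2 × 250 and filtered by CDR length. The clones had been stained with 10% biotinylated, detergent-solubilized Sf9 membrane reagent for 1 hour at 4 °C and sorted by FACS into low and high (top ~1%) gates on anti-HA and streptavidin fluorescence. Polyreactivity labels come from the gate of origin.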

Sequence | polyreactivity (PSR sort gate)
QVQLVESGGGLVQAGGSLRLSCAASGSTFVRYAMGWYRQAPGKERELVAAISGGGSTSYADSVKGRFTISRDNAKNTVYLQMNSLKPEDTAVYFCAKAGYRSEFEYWGQGTQVTLSS | low polyreactivity
QVQLVESGGGLVQAGGSLRLSCAASGSTFYPYAMGWYRQAPGKERELVAAISSGGSTSYADSVKGRFTISRDNAKNTVYLQMNSLKPEDTAVYYCNASSPGAVPVYYYDYWGQGTQVTVSS | low polyreactivity
QVQLVESGGGLVQAGGSLRLSCAASGRTFLAYTMGWYRQAPGKEMELVAAISTPGGSTYYADSVKGRFTISRDNAKNTVYIQMNSLKPEDTAVYYCAAADSTWFDWGNYWYYYWGQGTQVTVSS | low polyreactivity
QVQLVESGGGLVQAGCRLRLSCAAAAYIYRYAMGWYIQAPGKEREFVAAITWNGGSTYYADSVNGRFTISRDNAKITVYLQMNSLKPEDTGVYYCADDWSYYRRHFDYWGHGTQVTVSS | high polyreactivity
QVQLVESGGGLVQAGGSLRLSCAASGSTFYENAMGWYRQAPGKERELVAAITWSGGRTYYADSVKGRFTISRDNAKNTVYLQMNSLKPEDTAVYYCNARARSRKFYYWGQGTQVTVSS | high polyreactivity
QVQLVESGGGLVQAGGSLRLSCAASGRIFLRYAMGWYRQAPGKEREFVAAISYVGGSTYYADSVKGRFTISRDNAKNTVYLQMNILKPEDTAVYYCNADVPKSLLLYYPWGYGFWGQRTQVTVSS | low polyreactivity
QVQLVESGGGLVQAGGSLRLSCAASGFIFVVYAMGWYRQAPGKERELVATISSGGGTYYADSVKGRFTISRDNAKNSVYFQMNSLKPEDTAVYYCAARRSRLYHFGGNNYWGQGTQVTVSS | high polyreactivity
QVQLVESGGGLVQAGGSLRLSSAASGRTLSKNAMGWYRQAPGKERELVATISSVGRTNYADSVKGRFTISRDNAKNTVYLQMNSLKPEDTAVYYCAATVRGKRSTYDYWGQGTQVTVSS | high polyreactivity
QVQLVESGGGLVQAGGSLRLSCAASGGTIENYAMGWYRQAPGKERELVAAISSGGSTNYADSVKGRFTISRDNAKNTVYLQMNSLKPEDTAVYYCATRGIWKKVPYYYWGQGTQVTVSS | low polyreactivity
QVQHVESGGGLVQAGGSLRLSCAASGFTFLNYSMGWYRQAPGKERELVAAISFSTGRTYYADSVKGRFTISRDNAKNTVYLQMNSLKPEDTAVYYCNAERGFSDYWGQGTQVTVSS | high polyreactivity
QVQLVESGGGLVQAGGRLRLSCAASGRTYYTYAMGWYRQAPGKERELVAAITWDGGSTYYADSVKGRFTISRDNAKNTVYLQMNSLKPEDTAVYYCADDLYDTYGTFDYWGQGTQVTVSS | low polyreactivity
QVQLVESGGGLVQAGGSLRLSCAASGSIFPDNAMGWYRQAPGKERELVAAISLSGGRTYYADSVKGRFTISRDNAKNTVYLQMNSLKPEDTAVYYCAAKQRPKSYGPGHYYWGQGTQVTVSS | high polyreactivity
QVQLVESGGGLVQAGGSLRLSCAASGFIFDKNAMGWYRQAPGKERELVATITSGGSTYYADSVKGRFTISRDNAKNTVYFQMNSLKPDETAVYYCAALDYGYRWYRYYYWGQGTQVTVSS | high polyreactivity
QVQLVESGGGLVQAGGSLRLSCAASGNTFFDNAMGWYRQAPGKERELVAAITFSGGSTYYADSVKGRFTISRDNAKNTVYLQMNSLKPEDTAVYYCAAVIRSRYSYYEYDYWGQGTQVTVSS | high polyreactivity
HVQLVESGGVLVQAGGSLRLSCAATGSIFRNNAMGWYRQAPGKERDLVAAISSSGGSTFYADSVKGRFTISRDNAKNTVYLQMNSQNPEDTAVYYCAARVRSELIKRYDWGQGTQVTVSS | high polyreactivity
QVQLVESGGGLVQAGGSLRLSCAASGRIFPYYAMGWYRQAPGKERELVAVISTRGGSTYYADSVKGRFTISRDNAKNTVYLQMNSLKPEDTAVYYCAAKSVYRMGYWGQGTQVTVSS | high polyreactivity
QVQLVESGGGLVQAGGSLRLSCAASGSTFWYYGMGWYRQAPGKERELVAAITRGGSTYYADSVKGRFTISRDNAKNTVYLQMNSLKPEDTAVYYCAARPRYRAPYGYWGQGTQVTVSS | high polyreactivity
QVQLVESGGGLVQAGGSLRLSCAASGFTLNGYAMGWYRQAPGKERELVAAISSSGGRTYYADSVKGRFTISRDNAKNTVYLQMNSLKPEDTAVYYCAAVVYYEDGYWGQGTQVTVSS | low polyreactivity
QVQLVESGGGLVQAGGSLRLSCAASGRIFRVNAMGWYRQAPGKERELVAAISGRGGSTYYADSVKGRFTISRDNANNTVYLQMNSLKPEDTAVYYCAKKSFSYGYNSYDYWGQGTQVTVSS | high polyreactivity
QGQLVESGGGLVQAGGSLRLSCAASGFSFLRYAMGWYRQAPGKERELVAAISTSGGSTSYADSVKGRFTISRDNAKNTVSLQKNSLKQEDTAVYYCNAVLYKVSISEYDYWGQGTQVTVSS | high polyreactivity
QVQLVESGGGLLQAGGSLRLSCAASGFIFRRNAMGWYIQAPGKEREFVASISKSSDLTYYADSVKGRFRISRDNAKNTVYLQMNSLKPEVTAVYYCAAKVRQWRHGSYSSQYDYWGQGTQVTVSS | high polyreactivity
QVQLVESGGGLVQAGGSLRLSCAASGSTFSVYAMGWYRQAPGKERELVADNTRGGSTYADSVKGRFTISRDNAKNTVYLQMNSLKPEDTAVYYCAREEVTPYPLYWSTREYDYWGQGTQVTVSS | low polyreactivity

Sequence | polyreactivity (PSR sort gate)
QVQLVDSGGGLVQAGGSLRLSCAASGLIVFYAMGWYRQAPGKERELVAGISSGGNTNYADSVKGRFTISRDNAKNTFYLQMNSMKPQDTSVYYCAAVYLLSSYDFWGQGTQVTVSS | high polyreactivity
QVQLVESGGGLVQAGGSLRLSCAASGSIFKWYAMGWYRQAPGKERELVASITWSGGSTYYADSVKGRFTISRDNAKNTVYLQMNSLKPEDTAVYYCNALSWVRGDYWGQGTQVTVSS | low polyreactivity
QVQLVESGGGLVQAGGSLRLSCAASGRIFVRYAMGWYRQAPGKERELVAAISYRGGSTYYADSVKGRFTISRDNAKNTVYLLMNSLKPEDTAVYYCAARNSYGNWSYYYWGQGTQVTLSS | high polyreactivity
QVQLVESGGGLVQAGGSLRLSCAASGITFQANAMGWYRQAPGKERELVAAISSSDGSTYYADSVKGRFTISRDNAKNTVYLQMNSLKPEDTAVYYCNVDYAQRVFLYDYWGQGTQVTVSS | low polyreactivity
QVQLVESGGGLVQAGGSLRLSCAASGSTLAPYAMGGYRQAPGKERELVASINWGGTTTYYADSVKGRFTISRDNAKNTVYLQMNSLIPEDTAVYYCAALGLRWGRSGYYYEYYYWGQGTQVTVSS | high polyreactivity
QVQLLESGGGLVKAGGSLRVSCAASGLTFNYYAMGWYRHAPGKDRELCAAISRRGGYTYYADSVKGRFTISRDNAKNTVYVQKNSQKPEDTAVYDCAADNYEHNYYGYYYWGQGNQVTVSS | high polyreactivity
QVQLVESGGGLVQAGGSLRLSCAASGRTFATYVMGWYRQAPGKERELVAAISLSGGSTYYADSVKGRFTISRDNAKNTVFLQMNSVKPEDTAVYYCAISWVTSSDYWGQGTQVTVSS | low polyreactivity
QVQLVESGGGLVQAGGSLRLSCAASGRTFSGYPMGWYRPAPGKERELVAAISWSGGSTYYADSVKGRFTISRDNAKNTVYLQMNSLKPEDTAVYYCAAYTYSFRANHDYWGQGTQVTVSS | high polyreactivity
QVQLVESGGGLVQAGGSLRLSCAASGSIFPSYAMGWFRQAPRKERELVAAISRSAGSTYYADSVKGRFTISRDNAKNTVYLQMNSLKPEDTAVYYCAADGYSSRYRFDYWGQGTQVTVSS | low polyreactivity
QVQLVESGGGLVQAGGSLRLSCAASGRTFYYYAMGWYRQAPGKEREFVASISYSGARTYYADSVKGRFTISRDNAKNTVYLQMNSLKPEETAVYYCAAGYPLGGDYWGQGTQVTVSS | high polyreactivity
QVQLVESGGGLVQAGGSLRLSCAASGSILSYYAMGWYRQAPGKERELVAAISKSGGRTYYADSVKGRFTISRDNAKNTVYLQMNSLKPEDTAVYYCAAPATYKYDYWGQGTQVTVSS | high polyreactivity
QVQHVESGGGLVQAGGSLRLSCAASGRISLSNAMGWYRQAPGKEREFVAAITKRSDRTYYADSVKGRFTISRDNAKNTVYLQMNSLKPEDTAVYYCAAKPLFGTRDDYWGLGTQVTVSS | low polyreactivity
QVQLVESGGGLVQAGGSLRLSCAASGSIFSINTMGWYRQAPGKERELVAAITRSGSGTYYADSVKGRFTISRDNAKNTVYLQMNSLKPEDTAVYYCAKPAGARLGYWGQGTQVTVSS | low polyreactivity
QDQLVESGGGLVQARGSLRLSCAASGSIFVHNAMGWYRQAPGKEREFVAAITWSGGSTYYADSVKGRFTISRDYAKNTVYLQMNSLKPEDTAVSYCAAEDVAAQWAYESPTSYWYYYWGQGTQVTVSS | low polyreactivity
QVQLVESGGGLVQAGGSLRLSCAASGNTIYQYAMGWYRQAPGKERELVAAISSSVDRTYYADSVKGRFTISRDNAKNTVYLQMNSLKPEDTAVYYCAAASGGRWRVGYWGQGTQVTVSS | high polyreactivity
QVQLVESGGGLVQAGGSLRLSCAASGFTFYSYAMGWYRQSPGKERELVAAISWSGTRTYYADSVKGRFTISRDTAKNTVYLQMNSLKPEDTAVYYCAARGYRYGYGYWGQGTQVTVSS | high polyreactivity
QVQLVESGGGLVQAGGSLRLSCAASGSTFASNTMGWYRQAPGKERELVAAITQSGGTTYYAESVKGRFTISRDNAKNTVTLQMNSLKPEDTAVYYCATDVGYFYTVVGGYDYWGQGTQVTVSS | low polyreactivity
QVQLVESGGGLVQAGGSLRLSCAASGRIFVDNAMGWYRQAPGKERELVAAINYSGGGTYYADSVKGRFTISRDNAKNTVYLQMNSLKPEDTAVYYCAADSDSFWGVPSYYWGQGTQVTVSS | low polyreactivity
QVQLVESGGGLVQAGGSLRLSCAASGFNFEENAMGWYRQAPGKERELVAAINWSGGNTYYADSVKGRFTISRDNAKNTVYLQMNSLKPEDTAVYYCAAEYRSWSWRMDYWGQGTQVTVSS | high polyreactivity
QVQIVESGGGLVQAGGSLRLSCAASGSTFSRYAMGWYRQAPGKERELVAVITKSGGRTYYADSVKGRFRISRDNAKNTVYLQKHSLKAEDTADYYCAAYPNKSQTADGYWGQGTQVTVSS | high polyreactivity
QGQLVESGGGLVQAGGSLRLSCAASGSTFDNYAMGWYRQAPGKERELVAAISSSSSRTYYADSVKGRFTISRDNAKNTVYLQMNSLKPADTAVYYCAKRRSIGYYYWGQGTQVTVSS | high polyreactivity
